From paper PMC8773746

Biological target: Human erythropoietin (Epoetin β) (human) (UniProt P01588)
Test: SPR; EPO immobilised by amine coupling on a ProteOn GLH chip (up to 3 000 RU); S100 or CaM as analyte (0.25–4 μM); 25 °C; 10 mM HEPES, 150 mM NaCl, 0.05% TWEEN 20, pH 7.4, 1 mM CaCl2; heterogeneous ligand model, values averaged over analyte concentrations (n = 5)

Kd1 (heterogeneous ligand model, ligand population L1): 540 nM
Kd2 (heterogeneous ligand model, ligand population L2): 1.8 µM
ka1 (heterogeneous ligand model, ligand population L1): 2000 M⁻¹ s⁻¹
ka2 (heterogeneous ligand model, ligand population L2): 16000 M⁻¹ s⁻¹
kd1 (heterogeneous ligand model, ligand population L1): 0.0011 s⁻¹
kd2 (heterogeneous ligand model, ligand population L2): 0.028 s⁻¹
B1: Human S100P protein (wild-type) (natural protein)
chain: MTELETAMGMIIDVFSRYSGSEGSTQTLTKGELKVLMEKELPGFLQSGKDKDAVDKLLKDLDANGDAQVDFSEFIVFVAAITSACHKYFEKAGL
